Assay results from publication PMC6321010, “Interaction of the GTPase Elongation Factor Like-1 with the Shwachman-Diamond Syndrome Protein and Its Missense Mutations” (International Journal of Molecular Sciences, 2018).

Key:
Assay in all cases: fluorescence polarisation; fluorescence anisotropy; 2 µL additions of 40-90 µM human EFL1 titrated into 300 µL of 0.1 µM Lumio Green-labelled human SBDS-FlAsH construct; 25 °C; 50 mM Tris-HCl pH 8, 300 mM NaCl, 5 mM β-mercaptoethanol; fitted to a single-site or a two different binding sites model
Details in all cases: both partners purified
[1] = biological target: T1, human SBDS domains 1-2 (residues 1-174) with C-terminal FlAsH tag, labelled with Lumio Green (human, UniProt Q9Y3A5 1-174, Lumio Green dye (4',5'-bis(1,3,2-dithioarsolan-2-yl) fluorescein) on the C-terminal FlAsH tag)
T1 construct: human SBDS, domains 1-2, residues 1-174; also called construct consisting of domains 1-2 of SBDS; source: E. coli C41 (pRSET plasmid), purified by conventional chromatographic techniques; not shown: FlAsH tag (Cys-Cys-Pro-Gly-Cys-Cys), C-terminal, kept
T1 sequence (looked up): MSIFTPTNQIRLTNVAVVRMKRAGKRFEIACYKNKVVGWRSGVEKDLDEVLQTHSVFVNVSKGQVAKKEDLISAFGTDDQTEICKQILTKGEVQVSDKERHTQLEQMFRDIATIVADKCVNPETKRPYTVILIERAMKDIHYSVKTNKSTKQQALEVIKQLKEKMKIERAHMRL

[2] = biological target: T2, human SBDS I167T with C-terminal FlAsH tag, labelled with Lumio Green (human, UniProt Q9Y3A5 1-250, I167T, Lumio Green dye (4',5'-bis(1,3,2-dithioarsolan-2-yl) fluorescein) on the C-terminal FlAsH tag)
T2 construct: human SBDS, SDS disease surface missense variant I167T (domain 2), in the three-domain protein; Missense variant found in patients; source: E. coli C41 (pRSET plasmid), purified by conventional chromatographic techniques; not shown: FlAsH tag (Cys-Cys-Pro-Gly-Cys-Cys), C-terminal, kept
T2 sequence (looked up): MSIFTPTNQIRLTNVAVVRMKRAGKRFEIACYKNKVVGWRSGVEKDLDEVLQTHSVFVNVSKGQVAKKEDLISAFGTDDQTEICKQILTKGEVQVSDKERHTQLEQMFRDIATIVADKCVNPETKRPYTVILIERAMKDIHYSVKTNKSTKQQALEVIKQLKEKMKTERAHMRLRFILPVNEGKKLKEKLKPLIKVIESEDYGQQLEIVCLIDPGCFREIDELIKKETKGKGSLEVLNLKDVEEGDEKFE

[3] = biological target: T3, human SBDS R175W with C-terminal FlAsH tag, labelled with Lumio Green (human, UniProt Q9Y3A5 1-250, R175W, Lumio Green dye (4',5'-bis(1,3,2-dithioarsolan-2-yl) fluorescein) on the C-terminal FlAsH tag)
T3 construct: Missense variant found in patients; source: E. coli C41 (pRSET plasmid), purified by conventional chromatographic techniques; not shown: FlAsH tag (Cys-Cys-Pro-Gly-Cys-Cys), C-terminal, kept
T3 sequence (looked up): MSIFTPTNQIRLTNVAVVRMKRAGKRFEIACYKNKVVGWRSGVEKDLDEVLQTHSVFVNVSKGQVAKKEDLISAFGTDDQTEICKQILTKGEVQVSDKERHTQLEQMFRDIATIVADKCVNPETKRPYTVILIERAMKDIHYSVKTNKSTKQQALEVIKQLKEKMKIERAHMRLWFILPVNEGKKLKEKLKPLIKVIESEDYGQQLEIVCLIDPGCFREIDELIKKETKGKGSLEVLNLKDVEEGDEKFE

Kd1 (first binding site, two different binding sites model) [1]: 11.3 ± 1.8 µM | Kd2 (second binding site, two different binding sites model) [1]: 3.9 ± 0.2 µM | Kd1 (first binding site, two different binding sites model) [2]: 10 ± 3 µM | Kd2 (second binding site, two different binding sites model) [2]: 1.4 ± 0.2 µM | Kd1 (first binding site, two different binding sites model) [3]: 12 ± 4 µM | Kd2 (second binding site, two different binding sites model) [3]: 3.3 ± 0.6 µM
B1: human Elongation Factor Like-1 (EFL1) (enzyme)
chain: MVLNSLDKMIQLQKNTANIRNICVLAHVDHGKTTLADCLISSNGIISSRLAGKLRYMDSREDEQIRGITMKSSAISLHYATGNEEYLINLIDSPGHVDFSSEVSTAVRICDGCIIVVDAVEGVCPQTQAVLRQAWLENIRPVLVINKIDRLIVELKFTPQEAYSHLKNILEQINALTGTLFTSKVLEERAERETESQVNPNSEQGEQVYDWSTGLEDTDDSHLYFSPEQGNVVFTSAIDGWGFGIEHFARIYSQKIGIKKEVLMKTLWGDYYINMKAKKIMKGDQAKGKKPLFVQLILENIWSLYDAVLKKDKDKIDKIVTSLGLKIGAREARHSDPKVQINAICSQWLPISHAVLAMVCQKLPSPLDITAERVERLMCTGSQTFDSFPPETQALKAAFMKCGSEDTAPVIIFVSKMFAVDAKALPQNKPRPLTQEEIAQRRERARQRHAEKLAAAQGQAPLEPTQDGSAIETCPKGEEPRGDEQQVESMTPKPVLQEENNQESFIAFARVFSGVARRGKKIFVLGPKYSPLEFLRRVPLGFSAPPDGLPQVPHMAYCALENLYLLMGRELEYLEEVPPGNVLGIGGLQDFVLKSATLCSLPSCPPFIPLNFEATPIVRVAVEPKHPSEMPQLVKGMKLLNQADPCVQILIQETGEHVLVTAGEVHLQRCLDDLKERFAKIHISVSEPIIPFRETITKPPKVDMVNEEIGKQQKVAVIHQMKEDQSKIPEGIQVDSDGLITITTPNKLATLSVRAMPLPEEVTQILEENSDLIRSMEQLTSSLNEGENTHMIHQKTQEKIWEFKGKLEQHLTGRRWRNIVDQIWSFGPRKCGPNILVNKSEDFQNSVWTGPADKASKEASRYRDLGNSIVSGFQLATLSGPMCEEPLMGVCFVLEKWDLSKFEEQGASDLAKEGQEENETCSGGNENQELQDGCSEAFEKRTSQKGESPLTDCYGPFSGQLIATMKEACRYALQVKPQRLMAAMYTCDIMATGDVLGRVYAVLSKREGRVLQEEMKEGTDMFIIKAVLPVAESFGFADEIRKRTSGLASPQLVFSHWEIIPSDPFWVPTTEEEYLHFGEKADSENQARKYMNAVRKRKGLYVEEKIVEHAEKQRTLSKNK
notes: human EFL1, GTPase, said to comprise 1120 residues; the expressed protein is fused to a TEV recognition site and a hexahistidine tag at the C-terminus; also called human EFL1; GTPase Elongation Factor Like-1; source: S. cerevisiae BCY123 (pRS426 backbone, GAL1/10 promoter), purified
